# In article PMC11173125:
# Biological target: Nsp9 (SARS-CoV-2, UniProt P0DTD1 4141-4253)
# Experiment: EMSA
# Conditions: protein: recombinant; tags: C-terminal […]; (pET21b); chain copies: 2; label: 5' biotin; single strand
binder,measurement,value
TTTTTTTTTTTTTTTTTTTTTTTTTTTTTTTTTTTTTTTTTTTTT (ssDNA) [dT45],apparent K (half saturation),33.5 ± 2.5 µM
